Assay results as given in the supplement of paper PMC9170038.

The sequences below were run on K4 kissing-loop RNA reporter (assay: apparent KD of K4 kissing-loop reporter; higher = weaker reporter binding). Details: Eterna round: R107; input ligand: arginine 13.2 mM.
Method: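 RNA-MaP round R107: designed RNA switches with theophylline, tryptophan, arginine or FMN aptamers are transcribed on-chip within common flanks. They are titrated with a labelled K4 kissing-loop RNA reporter in RNA-MaP buffer (100 mM Tris pH 7.5, 80 mM KCl, 4 mM MgCl2), without ligand or with the indicated ligand. Median apparent KD per design.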
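Further: bound reporter read as fluorescence of individual clusters on recovered sequencing chips by microscopy, with normalized cluster intensities fitted with a binding model.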

| Sequence | apparent KD of K4 kissing-loop reporter [nM] |
| --- | --- |
| UUGUUUGGUUGAGAGGUUGGGCGAGAUGAUACCAGUAUAGUAUAGUACCCUUGGCAGCAUAGGAGAGAUAUAGUGAUGUUGUAUG [SSTheophA.V] | 288 |
| AAAUAGAUCAGUCACCCAGUGAUGUUGGAAGGAGCGUGCGAAAGCACAGGUAGGUCGCCGAAAUAAAAUUGGCUGAUCAAAAUAA | 221 |
| CCGGGCGGCCGAAGGAGCGGGCGGGCCCGAGUGAUGUUCGGGUGGACCGUGAGGUCCGGUGCCCAGGUAGGUCGCGGUUCCGCCC [#2 Same State - Arginine B Attempt #7 (HarryS)] | 123 |
| UGACAUUGCUCAGAUACCAGACCUGAGGAUCACCCGGGUGCCAAAACGUACUAAAUAAAGGUCCCUUGGCAGCUGAGCAAUGUCU [TheoBX 13] | 43.7 |
| ACAUUAGCGAGUGAUGUUCGCUAAGACGAAGGAGCGCUCGCGAGAGCAGGUAGGUCGCGUCUAGUGUCACUGUACUAAAUAGUGA [Arg A SS t12] | 164 |
| AUUAUAAAGACGGCCGCCACUGAGAGUAGUGAUGUUACUCUUUUCCUUUAGAUAUUAUAUUUUAUCAGGACCGGGUUUUUUGAUU [JR_Nu_ExcTryptoB_Sub025] | 86.7 |
| AGGUUUUGAUUAGGAUAUGCACUGACGACGAGAAUAUAGUGAUGUUAUAUAAUACGAAUUAGUAGAGUAGAAGGGAUUGAGGUUU [SSFMNB.X] | 307 |
| GGAUCCACCAGUGAUGUUGGAGUAAUCUCCAAGGAUAUGACGAAAGUCAGAAGGUGGUAAAUAGACGUCAAAGACGUCGGAUCCA [FmnA 22 #SwitchBubble #K4Early] | 78.3 |
| AUCUAUGAGCGAGGAUAUGCAUAACGCGAGUGAUGUUCGCGAUGUGGGCGUAAUUGAUAAAAUGAAGCAGAAGGCGCACUCAUGA [Exclusion - FMW B / B] | 115 |
| UGUGUUUACCUGACUCAGUGAUGUUGAGAAGGAGCGUGCUAAGGCACAGGUAGGUCGCUCAACCUAAAUUCAGGUGAGCACUAAA | 351 |
| UUACUGCCCAGUGAUGUUGGGUAUCGGCGGCGAGGACCGGUACGGCCGCCACUCGGCGCACAGGCGGAGUGAUGUUUCGCUUAAA [Same State Tryptophan A GF 12] | 539 |
| AUGUACAUUCUCAGUGAUGUUGGGUUGUAACGAGGACCGGUACGGCCGCCACUCGGGAUGUGGUAUAUAGAUGUAUGUGUAGCAU [skye_SS_TA] | 271 |
| CCUAUCUCAUACGAUACCAGUCUACGAUAUUUUAUCGUUGCCAUCACCGAGUGAUGUUCGGACCCUUGGCAGCGUAUGGGAUAGG [Ex Theophylline B K4 5] | 277 |
| UGCUUUAUCAGAAGGAGCGGGUUGUUCAUAAUAAUAAUCAGUGAUGUUGAUAUAUGAUGAUUCCAGGUAGGUCGCUGAUAUAGCU [KL-XARG-B2] | 214 |
| UAAUAAAUUCCAGCUAUAUCACUCUUCGAAGGAGCGGACGAAAGUCCAGGUAGGUCGCGAAGAGUGAUGUUCUUUGCGGCGCUGG [Omei KL Arginine A Exc A v5] | 60.8 |
| GCUAGGAUGGCAGGAUAUAGUUCGUGAGUGAUGUUCAAAGAACUAAGAGGGACACCUCAUUCUAAACUAGAAGGGCCAUCCUAGC | 275 |
| AUAAUUAUAUAGAAAUAUAUAAUUAUAUAACGAGGACCGGUACGGCCGCCACUCGUGCCGGGCAUAAAAUGAGUGAUGUUCAUGU [KL-XTryp-A7 #analogue] | 228 |

| Sequence | apparent KD of K4 kissing-loop reporter [nM] |
| --- | --- |
| UGUAUGUGAUGUGAUACCAGUGAAGAGCCAGUGAUGUUGGUAGAACUGGUAUAUAAAUAACACCCUUGGCAGCACAAUCACGUAC [whbob_Ex_Theo_B_sa99] | 243 |
| AGCCGUCUAAGUGAUGUUUAGGCAUGUCAGCGAGGACCGGUACGGCCGCCACUCGUGCUAUUGAGAUUUCGGGUAGCCCACGUAG [theeternabot_sameState_KL_Trp_A_20] | 187 |
| GUGAAGGAGCUGCAGUGAUGUUGCAGAAACUAGGAUAUCAGGAAACUGAGAAGGAGUCAACUCCUUCACCUAAAUACUGCAGAAA [KL-SSFMN-A23] | 130 |
| AUAAUAAAGACGGCCGCCACUGAGAGUAGUGAUGUUACUCUUUUCCUUUAGAAAUAAUAUUUUAUCAGGACCGGGUUUUUUGAAU [JR_Nu_ExcTryptoB_Sub026] | 81.1 |
| CAUACGCAUGGAGGAUAUGAGAUUUCUCAUAUUAUUUAAUAUUCUCAGUGAUGUUGAGAAUUAAACUCAGAAGGCCAUGUGUAUG [Ex FMN B 4] | 149 |
| ACGUAGUUCUAGGAUACCAGCCAAGGAGGGUAGGACAAAAGUCCUGUAGCCAGUGAUGUUGGCCCUUGGCAGCCUAGAACUACGA [Omei KL Theo B Exc B v3] | 183 |
| AGGUACUACGGAAGGAGCGCACCAGUGAUGUUGGUGUGUGACCGUGACAUGGCAGUCAAGGUGCAGGUAGGUCGCCGUGGCCUUU [Anatartibe] | 113 |
| UGACUACAAAAGGAAUAAUCCUAGUGAUGUUAGGAUAUGCUGAUAAGCAGAAGGAACGGAGAUCGAAAGAUCUCAAAUGUAGUCU [whbob_Ex_FMNA__2th191] | 89.8 |
| UCGGCAAAGUCGGCCGCCACUCCGGGCCCUAUAAAUGGGCGCAGUGAUGUUGCGGCUAGGCCUCUGAGGACCGGGACUUUGUAAA [Atordied] | 63.1 |
| UUGAGCCUGACGAAAGUCAGGCUCUGCGAGCGAGGACCGGUACGGCCGCCACUCGGUGCAGUGAUGUUGCAUGGCCGCAAGGCCG [#2 Exclusion - Tryptophan A Attempt #14 (HarryS)] | 300 |
| ACUAUCGAAAGAUAGUUCCCAGAGCUAGUAGAGGAUAUCUGGAAACAGAGAAGGCUACAAGAGUGAUGUUCUUCUAGCUUUGGGA | 291 |
| CGUUUAUAGCAGGAUACCAGUACGGAUAAAGUACGUUAAUAGUAGAGUGAUGUUCUAAAGUACCCUUGGCAGCUUAGAGUGAGUG [ExTheophylB.O] | 149 |
| GCAGUGAUGUUGCGGAUGUACAGUGGCGUGCGAGGACCGGUACGGCCGCCACUCGUACAGAGCCAGCUAAUACAUCGAUUGGUGA [whbob_SS_Tryp_A_m7] | 176 |
| AGUGAUGUUGUGUUAUGCAAGGGAAGUGAUCGAGGACCGGUACGGCCGCCACUCGAGUGAUGAGUGAGUGAUGUUUGUUUAGGGA [ffgmullin] | 451 |
| GGAAAGCCAGUGAUGUUGGCAUAAACUGAAGGAGCGCGUGAAAACGCAGGUAGGUCGCAGAACCUUGCCAACUAUAUUAUUUACC [Ex Arginine A K4 21] | 221 |
| GCAGUGAUGUUGCUGAUGUACAGUGGGAUACGAGGACCGGUACGGCCGCCACUCGUACAGAACUUAUUAAUACAUCGAUAAGUGA [XIV] | 612 |

Same assay, conditions: Eterna round: R107; input ligand: none

| Sequence | apparent KD of K4 kissing-loop reporter [nM] |
| --- | --- |
| UGUGUUGUUUUGAUGUUUGUUGUAAAAUGGCAGGAUAUCGUAGAGGCGAGAAGGGCUUUUAUGCGUUAUGAGUGAUGUUUGUAGG [zvvczmullin] | 352 |
| UGACUGGACUGAAGGAGCGCUAAACUCCUAGUGAUGUUAGGAUAACGAGACAAAGUCUCGAGGCAGGUAGGUCGCAGUCUAGUCU | 131 |
| UCCUGCAAUCGACCACGAAAGUGGAUGGAUACCAGAGUCGAAAGACUCCCUUGGCAGCCAGUGAUGUUGGAAGCAGGUAAAUAAA [#SwitchBubble 17 #K4Late] | 445 |
| UGUCAUUGGUCUGAUACCAGUUGAUAAACUGGAGUGAUGUUCCAAGAACGAGAAACUCGCAACCCUUGGCAGCAGACCGAUGACU [TheoBS 17 #SwitchBubble 13 #StaticStem] | 170 |
| AUGCGUGAUGCUCAAAGAGUAUCACCCGAUACCAGUAUGGAAACAUACCCUUGGCAGCGGGUAACUGCCCAGUGAUGUUGGACGC [Theophylline A K4 10] | 242 |
| AAAUAUUCGAGUGAUGUUCGAAUAAUAUCAGAGGAUAUGCAUAAAAGCAGAAGGCUGUAUUACUUUUUGUUACGAAAUUUUAUAA [JR_SSFMNA_Sub020] | 102 |
| GGACAAGCAUUAGGAUAUAUAGAGCGAAACGCAAUUGAGUGAUGUUCAAAAGCAUAGGGCGAGGAAAUAGAAGGAAUGCACGGGC [Default title] | 216 |
| UGAACUGUCUGCGAUACCAGCUAAGGAGUGAUGUUCCGGCUCGACGAAACGUCGAGCCAUAGCCCUUGGCAGCGCAGACAGUUCA [#28 K4 Theophylline B Same State] | 334 |
| UCGGAGGGAGCGGCCGCCACUGUAUUACCUCGACGAACGCCGGUUUUCAUGAAGUGAUGUUUCGCCAGGACCGGGCUAAUCUGAG [theeternabot_exclusion_KL_Trp_B_46] | 235 |
| AGGUGCUACGGAAGGAGCGCACCAGUGAUGUUGGUGUGUGACCGUGACAUGGCAGUCAAGGUGCAGGUAGGUCGCCGUGGCCUUU [Geeseris] | 131 |
| AAUUCAGUGAUGUUGGAAGGCAGGAGGGAUACCAGCGGAAAUAAACGCCCUUGGCAGCCCAAAUAUCCCAAAUAGAUAAUAAUUU [Same State - Theophylline A (Freestyle 1)] | 610 |
| UUGUUUGGUUGAGAGGUUGGGCGAGAUGAUACCAGUAUAGUAUAGUACCCUUGGCAGCAUAGGAGAGAUAUAGUGAUGUUGUAUG [SSTheophA.V] | 493 |
| AAAUAGAUCAGUCACCCAGUGAUGUUGGAAGGAGCGUGCGAAAGCACAGGUAGGUCGCCGAAAUAAAAUUGGCUGAUCAAAAUAA | 116 |
| CCGGGCGGCCGAAGGAGCGGGCGGGCCCGAGUGAUGUUCGGGUGGACCGUGAGGUCCGGUGCCCAGGUAGGUCGCGGUUCCGCCC [#2 Same State - Arginine B Attempt #7 (HarryS)] | 157 |
| UGACAUUGCUCAGAUACCAGACCUGAGGAUCACCCGGGUGCCAAAACGUACUAAAUAAAGGUCCCUUGGCAGCUGAGCAAUGUCU [TheoBX 13] | 65.5 |
| ACAUUAGCGAGUGAUGUUCGCUAAGACGAAGGAGCGCUCGCGAGAGCAGGUAGGUCGCGUCUAGUGUCACUGUACUAAAUAGUGA [Arg A SS t12] | 180 |
| AUUAUAAAGACGGCCGCCACUGAGAGUAGUGAUGUUACUCUUUUCCUUUAGAUAUUAUAUUUUAUCAGGACCGGGUUUUUUGAUU [JR_Nu_ExcTryptoB_Sub025] | 90.3 |
| AGGUUUUGAUUAGGAUAUGCACUGACGACGAGAAUAUAGUGAUGUUAUAUAAUACGAAUUAGUAGAGUAGAAGGGAUUGAGGUUU [SSFMNB.X] | 348 |
| GGAUCCACCAGUGAUGUUGGAGUAAUCUCCAAGGAUAUGACGAAAGUCAGAAGGUGGUAAAUAGACGUCAAAGACGUCGGAUCCA [FmnA 22 #SwitchBubble #K4Early] | 97.9 |
| AUCUAUGAGCGAGGAUAUGCAUAACGCGAGUGAUGUUCGCGAUGUGGGCGUAAUUGAUAAAAUGAAGCAGAAGGCGCACUCAUGA [Exclusion - FMW B / B] | 177 |
| UGUGUUUACCUGACUCAGUGAUGUUGAGAAGGAGCGUGCUAAGGCACAGGUAGGUCGCUCAACCUAAAUUCAGGUGAGCACUAAA | 197 |
| UUACUGCCCAGUGAUGUUGGGUAUCGGCGGCGAGGACCGGUACGGCCGCCACUCGGCGCACAGGCGGAGUGAUGUUUCGCUUAAA [Same State Tryptophan A GF 12] | 627 |
